# From PMC8836101 (2022)
# B1: tandem Tudor domains of UHRF1 (domain or fragment)
# chain: WDETELGLYKVNEYVDARDTNMGAWFEAQVVRVTRKAPSRDEPCSSTSRPALEEDVIYHVKYDDYPENGVVQMNSRDVRARARTIIKWQDLEVGQVVMLNYNPDNPKERGFWYDAEISRKRETRTARELYANVVLGDDSLNDCRIIFVDEVFKIERPGE
# B2: bromo-adjacent homology domain of ASH1L (domain or fragment)
# chain: NFHSFNVEKQQLCKCGFEKCRGIIGGKSQRVNGLTSSKNSQPMATHKKSGRSKEKRKSKHKLKKRRGHLSEEPSENINTPTRLTPQLQMKPMSNRERNFVLKHHVFLVRNWEKIRQKQEEVKHTSDNIHSASLYTRWNGICRDDGNIKSDVFMTQFSALQTARSVRTRRLAAAEENIEVARAARLAQIFKEICDGIISYKDSSRQALAAPLLNLPPKKKNADYYEKISDPLDLITIEKQILTGYYKTVEAFDADMLKVFRNAEKYYGRKSPVGRDVCRLRKAYYNARHEASAQIDEIVGETASEADSSETSVSEKENGHEKDDDVIRCICGLYKDEGLMIQCDKCMVWQHCDCMGVNSDVEHYLCEQCDPRPVDREVPMIPRPHYAQPGCVYFICLLRDDLLLRQGDCVYLMRDSRRTPDGHPVRQSYRLLSHINRDKLDIFRIEKLWKNEKEERFAFGHHYFRPHETHHSPSRRFYHNELFRVPLYEIIPLEAVVGTCCVLDLYTYCKGRPKGVKEQDVYICDYRLDKSAHLFYKIH
# What was measured:
# H3K18me2 = H3K18me2 (Homo sapiens, dimethyl-Lys18 (mature numbering); biotin, attachment site not given; limits assumed from the H3 1-21 control); assay: FACS; yeast surface display titration
# H3 22-41 = H3 22-41 (Homo sapiens, unmodified; biotin, attachment site not given); assay: FACS; yeast surface display titration
Binder,Kd (H3K18me2) [µM],Kd (H3 22-41) [µM]
B1,5,–
B2,–,6.5
